The values below come from patent US20240287139.

B1: MtbGyrase with MtbGyrAP353L (protein)
chain 1: TDTTLPPDDSLDRIEPVDIEQEMQRSYIDYAMSVIVGRALPEVRDGLKPVHRRVLYAMFDSGFRPDRSHAKSARSVAETMGNYHPHGDASIYDSLVRMAQPWSLRYPLVDGQGNFGSPGNDPPAAMRYTEARLTPLAMEMLREIDEETVDFIPNYDGRVQEPTVLPSRFPNLLANGSGGIAVGMATNIPPHNLRELADAVFWALENHDADEEETLAAVMGRVKGPDFPTAGLIVGSQGTADAYKTGRGSIRMRGVVEVEEDSRGRTSLVITELPYQVNHDNFITSIAEQVRDGKLAGISNIEDQSSDRVGLRIVIEIKRDAVAKVVINNLYKHTQLQTSFGANMLAIVDGVLRTLRLDQLIRYYVDHQLDVIVRRTTYRLRKANERAHILRGLVKALDALDEVIALIRASETVDIARAGLIELLDIDEIQAQAILDMQLRRLAALERQRIIDDLAKIEAEIADLEDILAKPERQRGIVRDELAEIVDRHGDDRRTRIIAADGDVSDEDLIAREDVVVTITETGYAKRTKTDLYRSQKRGGKGVQGAGLKQDDIVAHFFVCSTHDLILFFTTQGRVYRAKAYDLPEASRTARGQHVANLLAFQPEERIAQVIQIRGYTDAPYLVLATRNGLVKKSKLTDFDSNRSGGIVAVNLRDNDELVGAVLCSAGDDLLLVSANGQSIRFSATDEALRPMGRATSGVQGMRFNIDDRLLSLNVVREGTYLLVATSGGYAKRTAIEEYPVQGRGGKGVLTVMYDRRRGRLVGALIVDDDSELYAVTSGGGVIRTAARQVRKAGRQTKGVRLMNLGEGDTLLAIARNAEESGDDNAVDANGADQTGN
chain 2: MAAQKKKAQDEYGAASITILEGLEAVRKRPGMYIGSTGERGLHHLIWEVVDNAVDEAMAGYATTVNVVLLEDGGVEVADDGRGIPVATHASGIPTVDVVMTQLHAGGKFDSDAYAISGGLHGVGVSVVNALSTRLEVEIKRDGYEWSQVYEKSEPLGLKQGAPTKKTGSTVRFWADPAVFETTEYDFETVARRLQEMAFLNKGLTINLTDERVTQDEVVDEVVSDVAEAPKSASERAAESTAPHKVKSRTFHYPGGLVDFVKHINRTKNAIHSSIVDFSGKGTGHEVEIAMQWNAGYSESVHTFANTINTHEGGTHEEGFRSALTSVVNKYAKDRKLLKDKDPNLTGDDIREGLAAVISVKVSEPQFEGQTKTKLGNTEVKSFVQKVCNEQLTHWFEANPTDAKVVVNKAVSSAQARIAARKARELVRRKSATDIGGLPGKLADCRSTDPRKSELYVVEGDSAGGSAKSGRDSMFQAILPLRGKIINVEKARIDRVLKNTEVQAIITALGTGIHDEFDIGKLRYHKIVLMADADVDGQHISTLLLTLLFRFMRPLIENGHVFLAQPPLYKLKWQRSDPEFAYSDRERDGLLEAGLKAGKKINKEDGIQRYKGLGEMDAKELWETTMDPSVRVLRQVTLDDAAAADELFSILMGEDVDARRSFITRNAKDVRFLDV
B2: MtbGyrase with MtbGyrAM33A (protein)
chain 1: TDTTLPPDDSLDRIEPVDIEQEMQRSYIDYAASVIVGRALPEVRDGLKPVHRRVLYAMFDSGFRPDRSHAKSARSVAETMGNYHPHGDASIYDSLVRMAQPWSLRYPLVDGQGNFGSPGNDPPAAMRYTEARLTPLAMEMLREIDEETVDFIPNYDGRVQEPTVLPSRFPNLLANGSGGIAVGMATNIPPHNLRELADAVFWALENHDADEEETLAAVMGRVKGPDFPTAGLIVGSQGTADAYKTGRGSIRMRGVVEVEEDSRGRTSLVITELPYQVNHDNFITSIAEQVRDGKLAGISNIEDQSSDRVGLRIVIEIKRDAVAKVVINNLYKHTQLQTSFGANMLAIVDGVPRTLRLDQLIRYYVDHQLDVIVRRTTYRLRKANERAHILRGLVKALDALDEVIALIRASETVDIARAGLIELLDIDEIQAQAILDMQLRRLAALERQRIIDDLAKIEAEIADLEDILAKPERQRGIVRDELAEIVDRHGDDRRTRIIAADGDVSDEDLIAREDVVVTITETGYAKRTKTDLYRSQKRGGKGVQGAGLKQDDIVAHFFVCSTHDLILFFTTQGRVYRAKAYDLPEASRTARGQHVANLLAFQPEERIAQVIQIRGYTDAPYLVLATRNGLVKKSKLTDFDSNRSGGIVAVNLRDNDELVGAVLCSAGDDLLLVSANGQSIRFSATDEALRPMGRATSGVQGMRFNIDDRLLSLNVVREGTYLLVATSGGYAKRTAIEEYPVQGRGGKGVLTVMYDRRRGRLVGALIVDDDSELYAVTSGGGVIRTAARQVRKAGRQTKGVRLMNLGEGDTLLAIARNAEESGDDNAVDANGADQTGN
chain 2: MAAQKKKAQDEYGAASITILEGLEAVRKRPGMYIGSTGERGLHHLIWEVVDNAVDEAMAGYATTVNVVLLEDGGVEVADDGRGIPVATHASGIPTVDVVMTQLHAGGKFDSDAYAISGGLHGVGVSVVNALSTRLEVEIKRDGYEWSQVYEKSEPLGLKQGAPTKKTGSTVRFWADPAVFETTEYDFETVARRLQEMAFLNKGLTINLTDERVTQDEVVDEVVSDVAEAPKSASERAAESTAPHKVKSRTFHYPGGLVDFVKHINRTKNAIHSSIVDFSGKGTGHEVEIAMQWNAGYSESVHTFANTINTHEGGTHEEGFRSALTSVVNKYAKDRKLLKDKDPNLTGDDIREGLAAVISVKVSEPQFEGQTKTKLGNTEVKSFVQKVCNEQLTHWFEANPTDAKVVVNKAVSSAQARIAARKARELVRRKSATDIGGLPGKLADCRSTDPRKSELYVVEGDSAGGSAKSGRDSMFQAILPLRGKIINVEKARIDRVLKNTEVQAIITALGTGIHDEFDIGKLRYHKIVLMADADVDGQHISTLLLTLLFRFMRPLIENGHVFLAQPPLYKLKWQRSDPEFAYSDRERDGLLEAGLKAGKKINKEDGIQRYKGLGEMDAKELWETTMDPSVRVLRQVTLDDAAAADELFSILMGEDVDARRSFITRNAKDVRFLDV
B3: MtbGyrase with MtbGyrAI36F (protein)
chain 1: TDTTLPPDDSLDRIEPVDIEQEMQRSYIDYAMSVFVGRALPEVRDGLKPVHRRVLYAMFDSGFRPDRSHAKSARSVAETMGNYHPHGDASIYDSLVRMAQPWSLRYPLVDGQGNFGSPGNDPPAAMRYTEARLTPLAMEMLREIDEETVDFIPNYDGRVQEPTVLPSRFPNLLANGSGGIAVGMATNIPPHNLRELADAVFWALENHDADEEETLAAVMGRVKGPDFPTAGLIVGSQGTADAYKTGRGSIRMRGVVEVEEDSRGRTSLVITELPYQVNHDNFITSIAEQVRDGKLAGISNIEDQSSDRVGLRIVIEIKRDAVAKVVINNLYKHTQLQTSFGANMLAIVDGVPRTLRLDQLIRYYVDHQLDVIVRRTTYRLRKANERAHILRGLVKALDALDEVIALIRASETVDIARAGLIELLDIDEIQAQAILDMQLRRLAALERQRIIDDLAKIEAEIADLEDILAKPERQRGIVRDELAEIVDRHGDDRRTRIIAADGDVSDEDLIAREDVVVTITETGYAKRTKTDLYRSQKRGGKGVQGAGLKQDDIVAHFFVCSTHDLILFFTTQGRVYRAKAYDLPEASRTARGQHVANLLAFQPEERIAQVIQIRGYTDAPYLVLATRNGLVKKSKLTDFDSNRSGGIVAVNLRDNDELVGAVLCSAGDDLLLVSANGQSIRFSATDEALRPMGRATSGVQGMRFNIDDRLLSLNVVREGTYLLVATSGGYAKRTAIEEYPVQGRGGKGVLTVMYDRRRGRLVGALIVDDDSELYAVTSGGGVIRTAARQVRKAGRQTKGVRLMNLGEGDTLLAIARNAEESGDDNAVDANGADQTGN
chain 2: MAAQKKKAQDEYGAASITILEGLEAVRKRPGMYIGSTGERGLHHLIWEVVDNAVDEAMAGYATTVNVVLLEDGGVEVADDGRGIPVATHASGIPTVDVVMTQLHAGGKFDSDAYAISGGLHGVGVSVVNALSTRLEVEIKRDGYEWSQVYEKSEPLGLKQGAPTKKTGSTVRFWADPAVFETTEYDFETVARRLQEMAFLNKGLTINLTDERVTQDEVVDEVVSDVAEAPKSASERAAESTAPHKVKSRTFHYPGGLVDFVKHINRTKNAIHSSIVDFSGKGTGHEVEIAMQWNAGYSESVHTFANTINTHEGGTHEEGFRSALTSVVNKYAKDRKLLKDKDPNLTGDDIREGLAAVISVKVSEPQFEGQTKTKLGNTEVKSFVQKVCNEQLTHWFEANPTDAKVVVNKAVSSAQARIAARKARELVRRKSATDIGGLPGKLADCRSTDPRKSELYVVEGDSAGGSAKSGRDSMFQAILPLRGKIINVEKARIDRVLKNTEVQAIITALGTGIHDEFDIGKLRYHKIVLMADADVDGQHISTLLLTLLFRFMRPLIENGHVFLAQPPLYKLKWQRSDPEFAYSDRERDGLLEAGLKAGKKINKEDGIQRYKGLGEMDAKELWETTMDPSVRVLRQVTLDDAAAADELFSILMGEDVDARRSFITRNAKDVRFLDV
B4: MtbGyrase with MtbGyrAA32V (protein)
chain 1: TDTTLPPDDSLDRIEPVDIEQEMQRSYIDYVMSVIVGRALPEVRDGLKPVHRRVLYAMFDSGFRPDRSHAKSARSVAETMGNYHPHGDASIYDSLVRMAQPWSLRYPLVDGQGNFGSPGNDPPAAMRYTEARLTPLAMEMLREIDEETVDFIPNYDGRVQEPTVLPSRFPNLLANGSGGIAVGMATNIPPHNLRELADAVFWALENHDADEEETLAAVMGRVKGPDFPTAGLIVGSQGTADAYKTGRGSIRMRGVVEVEEDSRGRTSLVITELPYQVNHDNFITSIAEQVRDGKLAGISNIEDQSSDRVGLRIVIEIKRDAVAKVVINNLYKHTQLQTSFGANMLAIVDGVPRTLRLDQLIRYYVDHQLDVIVRRTTYRLRKANERAHILRGLVKALDALDEVIALIRASETVDIARAGLIELLDIDEIQAQAILDMQLRRLAALERQRIIDDLAKIEAEIADLEDILAKPERQRGIVRDELAEIVDRHGDDRRTRIIAADGDVSDEDLIAREDVVVTITETGYAKRTKTDLYRSQKRGGKGVQGAGLKQDDIVAHFFVCSTHDLILFFTTQGRVYRAKAYDLPEASRTARGQHVANLLAFQPEERIAQVIQIRGYTDAPYLVLATRNGLVKKSKLTDFDSNRSGGIVAVNLRDNDELVGAVLCSAGDDLLLVSANGQSIRFSATDEALRPMGRATSGVQGMRFNIDDRLLSLNVVREGTYLLVATSGGYAKRTAIEEYPVQGRGGKGVLTVMYDRRRGRLVGALIVDDDSELYAVTSGGGVIRTAARQVRKAGRQTKGVRLMNLGEGDTLLAIARNAEESGDDNAVDANGADQTGN
chain 2: MAAQKKKAQDEYGAASITILEGLEAVRKRPGMYIGSTGERGLHHLIWEVVDNAVDEAMAGYATTVNVVLLEDGGVEVADDGRGIPVATHASGIPTVDVVMTQLHAGGKFDSDAYAISGGLHGVGVSVVNALSTRLEVEIKRDGYEWSQVYEKSEPLGLKQGAPTKKTGSTVRFWADPAVFETTEYDFETVARRLQEMAFLNKGLTINLTDERVTQDEVVDEVVSDVAEAPKSASERAAESTAPHKVKSRTFHYPGGLVDFVKHINRTKNAIHSSIVDFSGKGTGHEVEIAMQWNAGYSESVHTFANTINTHEGGTHEEGFRSALTSVVNKYAKDRKLLKDKDPNLTGDDIREGLAAVISVKVSEPQFEGQTKTKLGNTEVKSFVQKVCNEQLTHWFEANPTDAKVVVNKAVSSAQARIAARKARELVRRKSATDIGGLPGKLADCRSTDPRKSELYVVEGDSAGGSAKSGRDSMFQAILPLRGKIINVEKARIDRVLKNTEVQAIITALGTGIHDEFDIGKLRYHKIVLMADADVDGQHISTLLLTLLFRFMRPLIENGHVFLAQPPLYKLKWQRSDPEFAYSDRERDGLLEAGLKAGKKINKEDGIQRYKGLGEMDAKELWETTMDPSVRVLRQVTLDDAAAADELFSILMGEDVDARRSFITRNAKDVRFLDV

This data set deals with the compound of Formula IV.
For B1, the “compound-induced DNA cleavage compared to wildtype MtbGyrase” value was “reduced cleavage (5 to 100-fold)”.
Consider B2, for which the “compound-induced DNA cleavage compared to wildtype MtbGyrase” value is recorded as “reduced cleavage (5 to 100-fold)”.
In the case of B3 it was “reduced cleavage (5 to 100-fold)”.
In the case of B4 it was “reduced cleavage (5 to 100-fold)”.
